Four molecules from patent publication US20230124851A1 (INHIBRX LNC, published 2023) can be followed below.

In test [1] the target is T1, CD3 on the surface of human T cells (human, UniProt P07766 23-207).
T1 construct: whole, on cells; Part of the CD3/TCR complex on cells; also called CD3 epsilon
As to the kind of experiment: flow cytometry on primary human T cells, anti-human IgG APC secondary. The protocol: (§1) Binding of exemplary B7H3-targeting constrained CD3 engaging constructs set forth in Table E3 to CD3 on the surface of primary T cells or B7H3-expressing cells (A375) was assessed by flow cytometry. The T cells were primary T-cells that were negatively enriched from PBMCs isolated from healthy human donor peripheral blood leukopaks. Bound construct was detected with fluorophore-conjugated secondary antibodies specific for the human Fc (anti-human IgG APC secondary antibody) and binding was measured by flow cytometry. Cells incubated with secondary antibody only served as negative controls. Binding was compared to Dual-affinity Re-targeting Antibody (DART)-monomeric Fc format targeting B7H3 and CD3 (DART-Fc B7H3xCD3; see e.g. WO2017030926A1).
For orientation: In flow cytometry, cells or beads pass a laser one at a time.

Test [2] has as its target T2, human B7H3 (CD276) on the cell surface (human, UniProt Q5ZPR3 29-534).
T2 construct: B7H3 on A375 and other B7H3-positive or transfected cells
T2 sequence: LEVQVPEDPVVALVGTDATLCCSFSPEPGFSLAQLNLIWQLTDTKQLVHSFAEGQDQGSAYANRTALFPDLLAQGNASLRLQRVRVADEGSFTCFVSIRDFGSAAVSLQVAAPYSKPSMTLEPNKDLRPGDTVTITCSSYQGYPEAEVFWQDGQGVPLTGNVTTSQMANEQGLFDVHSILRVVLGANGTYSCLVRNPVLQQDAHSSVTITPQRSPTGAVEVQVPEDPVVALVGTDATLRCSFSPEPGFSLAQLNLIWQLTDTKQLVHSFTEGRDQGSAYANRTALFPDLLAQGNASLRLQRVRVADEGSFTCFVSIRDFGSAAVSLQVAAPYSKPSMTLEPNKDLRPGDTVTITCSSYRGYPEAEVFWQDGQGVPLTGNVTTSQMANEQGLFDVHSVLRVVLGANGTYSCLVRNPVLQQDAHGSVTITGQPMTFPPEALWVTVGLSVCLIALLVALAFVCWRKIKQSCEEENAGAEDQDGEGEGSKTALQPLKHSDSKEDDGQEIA
Put plainly: flow cytometry on A375 cells (B7H3+), anti-human IgG APC secondary. How it is done: as §1

T1 sequence (P07766 23-207): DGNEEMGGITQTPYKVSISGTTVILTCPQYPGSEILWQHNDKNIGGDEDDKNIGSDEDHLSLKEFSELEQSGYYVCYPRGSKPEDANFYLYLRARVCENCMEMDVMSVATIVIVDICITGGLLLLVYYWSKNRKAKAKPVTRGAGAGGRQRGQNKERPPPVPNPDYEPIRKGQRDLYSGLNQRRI

B1: cx4908 (bispecific antibody)
chain 1: EVQLVESGGGEVQPGGSLRLSCAASGSTFSSYHMSWFRQAPGKQREPVATSHHGGTTNYAGSVKGRFTISRDNAKNTVYLQMNTLRAEDTAVYYCKADHGYQGRGYWGQGTLVTVKPDKTHTCPPCPAPGGPSVFLFPPKPKDTLMISRTPEVTCVVVDVSHEDPEVKFNWYVDGVEVHNAKTKPREEQYNSTYRVVSVLTVLHQDWLNGKEYKCKVSNKALPAPIEKTISKAKGQPREPQVYTLPPCRDELTKNQVSLWCLVKGFYPSDIAVEWESNGQPENNYKTTPPVLDSDGSFFLYSKLTVDKSRWQQGNVFSCSVMHEALHNHYTQKSLSLSPTGGSGGGGIEPDIGGSGGSEVQLVESGGGLVQPGGSLRLSCAASGFTFNTYAMNWVRQAPGKCLEWVARIRSKYNNYATYYADSVKGRFTISRDDAKNTLYLQMSSLRAEDTAVYYCVRHGNFGNSYVSWFAYWGQGTLVTVKPEVQLVESGGGEVQPGGSLRLSCAASGFSFGSNVMMWVRQAPGKGPEWVSTIYSSGTGTFYAESVKGRFTISRDNAKNTLYLQMSSLRAEDTAVYYCATSGPVRGWGPWSQGTLVTVKP
chain 2: DKTHTCPPCPAPGGPSVFLFPPKPKDTLMISRTPEVTCVVVDVSHEDPEVKFNWYVDGVEVHNAKTKPREEQYNSTYRVVSVLTVLHQDWLNGKEYKCKVSNKALPAPIEKTISKAKGQPREPQVCTLPPSRDELTKNQVSLSCAVKGFYPSDIAVEWESNGQPENNYKTTPPVLDSDGSFFLVSKLTVDKSRWQQGNVFSCSVMHEALHNRYTQKSLSLSPTGGSGGGGIEPDIGGSGGSQAVVTQEPSLTVSPGGTVTLTCGSSTGAVTTSNYANWVQQKPGQAFRGLIGGTNKRAPGVPARFSGSLLGGKAALTISGAQPEDEADYYCALWYSNHWVFGCGTKLTVLEVQLLESGGGEVQPGGSLRLSCAASGFSFSINAMGWYRQAPGKRREFVAAIESGRNTVYAESVKGRFTISRDNAKNTVYLQMSSLRAEDTAVYYCGLLKGNRVVSPSVAYWGQGTLVTVKP
notes: chain 2 ends in the 4-1BB sdAb RH3v5-1
Turning to B1, the binding result in test [1] is on record as “no binding (tested: 200 nM)”.

B2: DART-Fc B7H3xCD3 (bispecific antibody)
chain 1: DIQLTQSPSFLSASVGDRVTITCKASQNVDTNVAWYQQKPGKAPKALIYSASYRYSGVPSRFSGSGSGTDFTLTISSLQPEDFATYYCQQYNNYPFTFGQGTKLEIKGGGSGGGGEVQLVESGGGLVQPGGSLRLSCAASGFTFSTYAMNWVRQAPGKGLEWVGRIRSKYNNYATYYADSVKDRFTISRDDSKNSLYLQMNSLKTEDTAVYYCVRHGNFGNSYVSWFAYWGQGTLVTVSSGGCGGGEVAALEKEVAALEKEVAALEKEVAALEKGGGDKTHTCPPCPAPEAAGGPSVFLFPPKPKDTLMISRTPEVTCVVVDVSHEDPEVKFNWYVDGVEVHNAKTKPREEQYNSTYRVVSVLTVLHQDWLNGKEYKCKVSNKALPAPIEKTISKAKGQPREPQVYTLPPSREEMTKNQVSLWCLVKGFYPSDIAVEWESNGQPENNYKTTPPVLDSDGSFFLYSKLTVDKSRWQQGNVFSCSVMHEALHNHYTQKSLSLSPGK
chain 2: QAVVTQEPSLTVSPGGTVTLTCRSSTGAVTTSNYANWVQQKPGQAPRGLIGGTNKRAPWTPARFSGSLLGGKAALTITGAQAEDEADYYCALWYSNLWVFGGGTKLTVLGGGGSGGGGEVQLVESGGGLVQPGGSLRLSCAASGFTFSSFGMHWVRQAPGKGLEWVAYISSDSSAIYYADTVKGRFTISRDNAKNSLYLQMNSLRDEDTAVYYCGRGRENIYYGSRLDYWGQGTTVTVSSGGCGGGKVAALKEKVAALKEKVAALKEKVAALKE
chain 3: not shown
notes: Comparator, an analog of the format of WO2017030926A1; three polypeptide chains; also called B7H3xCD3 DART-Fc
B2: the binding result in test [2] is reported as “binds”.

B3: cx2846 (bispecific antibody, not shown: a dimerising Fc or GST)
chain 1: EVQLVESGGGEVQPGGSLRLSCAASGSTFSSYHMSWFRQAPGKQREPVATSHHGGTTNYAGSVKGRFTISRDNAKNTVYLQMNTLRAEDTAVYYCKADHGYQGRGYWGQGTLVTVKPGGSGGGGIEPDIGGSGGSEVQLVESGGGLVQPGGSLRLSCAASGFTFNTYAMNWVRQAPGKCLEWVARIRSKYNNYATYYADSVKGRFTISRDDAKNTLYLQMSSLRAEDTAVYYCVRHGNFGNSYVSWFAYWGQGTLVTVKPEVQLVESGGGEVQPGGSLRLSCAPSERTFSTYTMGWFRQAPGKEREFVAVVNWGGGSKYYAESVKGRFTISRDNAKNTVYLQMSSLRAEDTAVYYCAAGGAYSGPYYDTRQYTYWGQGTLVTVKP
chain 2: GGSGGGGIEPDIGGSGGSQAVVTQEPSLTVSPGGTVTLTCGSSTGAVTTSNYANWVQQKPGQAFRGLIGGTNKRAPGVPARFSGSLLGGKAALTISGAQPEDEADYYCALWYSNHWVFGCGTKLTVL
With B3, the binding result in test [1] is “no binding (tested: 200 nM)”.

B4: cx3960 (bispecific antibody, not shown: a dimerising Fc or GST)
chain 1: EVQLVESGGGEVQPGGSLRLSCAASGSTFSSYHMSWFRQAPGKQREPVATSHHGGTTNYAGSVKGRFTISRDNAKNTVYLQMNTLRAEDTAVYYCKADHGYQGRGYWGQGTLVTVKPGGSGGGGIEPDIGGSGGSEVQLVESGGGLVQPGGSLRLSCAASGFTFNTYAMNWVRQAPGKCLEWVARIRSKYNNYATYYADSVKGRFTISRDDAKNTLYLQMSSLRAEDTAVYYCVRHGNFGNSYVSWFAYWGQGTLVTVKPQLQLQESGGGLVQAGDSLRLSCAASGFSFGSNVMMWVRQAPGKGPEWVSTIYSSGTGTFYADSVKGRFTISRNNAKNTLYLQMNSLKPDDTAVYYCATSGPVRGWGPRSQGTLVTVKP
chain 2: B3 chain 2
On to B4, for which the binding result in test [1] is given as “no binding (tested: 200 nM)”.
